From the nanobody polyreactivity screen of Harvey et al. (2022)

Experiment: yeast display, Sf9 membrane polyspecificity reagent, FACS + sequencing; frameworks hold sequencing errors
Procedure, shortened: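 Sorting gates, low and high (top ~1%), were placed on anti-HA fluorescence to track expression and on streptavidin fluorescence to track reagent binding. A clone's polyreactivity label is taken from the gate it came out of. The reagent was 10% biotinylated, detergent-solubilized Sf9 membrane, applied for 1 hour at 4 °C to galactose-induced yeast display cells.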

## QVLLVESGGGLVQAGGSLRVSCAASGRTFGGYGMGWYRQAPGKDRELVASISFSGGAGTYYADSVKGRFTISRDNATTPVYLQMNSLKPEDTAVYYCAKRYVTPTYRRYSWGQGTQETVSS
  polyreactivity (PSR sort gate): high polyreactivity

## QVNLVESGGGLVLAGGSLRLSCAASGRIYRRNTMGWYRPAPGKERELVAAITSSGGSTYADSVKGRFTISRDNAKNTVYLQMNSLKPEDTAVYYCDTYVAYHRGYRTYDHWGQGTQVTVSS
  polyreactivity (PSR sort gate): low polyreactivity

## QVNLVESGGGLVLAGGSLRLSCAASGVTYGNNAMGWYRQAPGKEREFVATISRRGGSTYYADSVMGRFTISRDNAKNTVYLQMNRLKPEDTAVYYCDVDRAGIKFAAGYDYWGQGTQVTVSS
  polyreactivity (PSR sort gate): high polyreactivity

## QVPHVESGGGLVQAGGSLRLSSAASGFIHKSYTMGWYRQAPGKERELVAAISRSGASKYYAYSVKGRFTISRDNAKNTVYLQMNSLKPEDTAVYYCNRRRHNIGTGEYNYWGQGTQVTVSS
  polyreactivity (PSR sort gate): high polyreactivity

## QVPLVESGGGLVQAGGSLRLSCAASGFIFYANAMGWYRQAPGKERELVAAISWDGGRTYYADSVKGRFTISRDNAKNTVYLQMNSLKPDDTAVYSCNALATDLDYWGQGTQVTVSS
  polyreactivity (PSR sort gate): low polyreactivity

## QVPLVESGGGLVQAGGSLRLSCAASGSIFQLYAMGWYRQAPGKEREFVAAITRSGGRTYYADSVKGRFTISRDNAKNTVYIQMNSLKPEDTAVYYCAADWVRNVYYRGYDYWGQGPQVTVSS
  polyreactivity (PSR sort gate): high polyreactivity

## QVPLVESGGGLVQAGGSLRLSCAASGSIFWTYTIGWYRKAPGKERELVAAITSSGSTNFADSVKGRFTISRDNAKKTVYLQMNSLKPADTAVYYCAADPEYRGYQRYDYWGQGTQVTVSS
  polyreactivity (PSR sort gate): low polyreactivity

## QVPLVESGGGLVQAGGSLRLSCAASGSTFSGYAMGWYRQAPGKERELVATITSTGSTNYADSVKGRFTISRDNAKNTVYLQMNSLKPEDTAVYYCNARYLFVERYFLHYASVRYDYWGQGTQVTVST
  polyreactivity (PSR sort gate): low polyreactivity

## QVPLVESGGGLVQAGGSLRLSCAASGSTLAANAMGWYRQAPGKERELVAAIDGGGSTYYADSVKGRFTISRDNAKNTVYLQMNILKPDDTAVYYCATPYVWTITQKKYDYWGQGTQVTVSS
  polyreactivity (PSR sort gate): low polyreactivity

## QVPLVESGGGLVQAGGSLRLSCDASGSTFFPNAMGWYRQAPGKEREFVAAISWSGGRTYYADSVKGRFTISRDNAKNTVYLQMNSLKPEDTAVYYCAARLYTVRYGYWGQGTQVTVSS
  polyreactivity (PSR sort gate): high polyreactivity

## QVPLVESGGGLVQAGRSLRLSCAASGITFRHNTMGWYRQAPGKERELVSTNYADSVKGRFTFSRDNAKNTVYLQMNSLKPEDTAVYYCNADGTFESDYWGQGTQVTVSS
  polyreactivity (PSR sort gate): low polyreactivity

## QVPLVESGRGLVQAGGSLRLSCAASGFIFKYYAMGWYRQAPGKEGELVASISSSGSSTYYADSVKGRFTISRDNAKNTVYLQMNSLKAEDTAVNYCNTVTYGPSAYDYLGQGTQVTVSS
  polyreactivity (PSR sort gate): low polyreactivity

## QVPMQESGGGLVQADGRLSLSCAASGSIFGYYYMGWYRQAPGKDRELVATINICGITNYADSVKGRFTISRDNAKNTVYLQMNSLKPDATAVYYCAADEYAQRDLGYWGQGPQVTVSS
  polyreactivity (PSR sort gate): low polyreactivity

## QVQHEESGGGIVQAGGSLRLSSAASGRTFKYYDMGWFRQALGKERELVATISSSDSTNYADSVKGRFTISRDNAKNTVYLQLNSLKPEDTAVYYCNADFKLIYVFDYWGQGSQVTVSS
  polyreactivity (PSR sort gate): high polyreactivity

## QVQHEESGGGLFQAGGSLRLICAASGSIFDYYAMGWYRQAPGKERELVSTYYADSVKVRFTISRDNAKNTVYLQLNSLKPEDTAVYFCAKDRGTTGIPDGPAASLYGYVYWGQGTQVTVSS
  polyreactivity (PSR sort gate): low polyreactivity

## QVQHEESGGGLVQAGGSLRLSCAASGLILFYNDMGWYRQAPGNERELVSVITSGGRTYYADSVKGRFTISRDIAKNTVYLQMNSLKPEDTAVYYCAATYGHPTTYCEGWRYGYWGQGTQVTVSS
  polyreactivity (PSR sort gate): low polyreactivity

## QVQHEESGGGLVQAGGSLRLSCAASGRIFPVNAMGWSRKAPGKERELLAAITRNGGSTYYADSVKGRFTISRDNAKNTVYLQMNSLKPEDTAVSYCAVRVVYGPAWAKMYYWGQGTQVTVSS
  polyreactivity (PSR sort gate): high polyreactivity

## QVQHEESGGGLVQAGGSLRLSCAASGSIFRGNAMGWYRQAPGNERELVAAITRSGGRTYYADSVKGRFTISRDNAKNTVYLQMNSLKPEDTAVYYCAADYPYGSPTHFDYWGPGTQVTVSS
  polyreactivity (PSR sort gate): high polyreactivity

## QVQHEESGGGLVQAGGSLRLSCAASGSIFTPTPKGCYRQAPGKERELVAAISSSSDRTYYADSVKGRFTISRDNAKNTVYLEMNSLKPEDTAVYFCAAYAQKRYYWGQGTQVNVSS
  polyreactivity (PSR sort gate): high polyreactivity

## QVQHVDSAGGIVQAGGILRLSCAASGPTFGKYAMGWYRQQHGKERELVATITRTARTNYADSVKGRFTSSRDNAKNTVYLQMNSRKPEDTAVYYCDAPWRYTFPPQVYGQSYGYWGQGTQVTVSS
  polyreactivity (PSR sort gate): high polyreactivity

## QVQHVDSGAGLVQAGGSLRLRCSASGLILKDYAMGWSIQPPGKERELVAAISTSAGTTYYADSVKGRFTISRDNAKNTVYLQMKSQKPEETAVYYCAAGYLPYYIRYYHPVTVDYDYWGQGTQVTVSS
  polyreactivity (PSR sort gate): low polyreactivity

## QVQHVDSGGGLVQAGGSLRLSCAASGSTFSLNAMGWYRQAPGKERELVAAISSGDSTNYADSVKGRFTISRDNAKNTVYLQMNSVKPEDTAVYYCAVEVYYTGFYYSPYAYDYWGQGTQVTVSS
  polyreactivity (PSR sort gate): low polyreactivity

## QVQHVESARGLVQAGGSLRLSCAASGRTFFSYAMGGYRQAPGKERELVAAITSGGTTYYADSVKGRFTISRDNAKNTVYLQMNSLKPEDTAVYYCAVLGLGQKRGRAFLFPYDYWGQGTQVTVSS
  polyreactivity (PSR sort gate): high polyreactivity

## QVQHVESCGGLVQAGGSLRLSCAASGFTFASNVMGWYRQAPGKERDLVAAITSGASTNYADSVKGRFTISRDNAKNTFYLQMNSLKPEDTAVYYCAAGRQWYVFYEFDYWGQGTQVTVSS
  polyreactivity (PSR sort gate): high polyreactivity

## QVQHVESCGGLVQAGGSLRLSCADSGRIFGDYVMGWYRQAPGKERELVASIDTSGGSTYDADSVKGGFTISRDIAKNTVYLQMNSVKPEDSAVYYCAAERKYFVFVYYQGWYDYWGQGTQVTVSS
  polyreactivity (PSR sort gate): low polyreactivity

## QVQHVESCGGLVQAGGSLRLSCDASGSTFYYYAMGWSRQGPGKERELVAAISLGGGSTYYADSVKGRFTISRDNAKNTVYLHMNSLKPEDSAVYYCAARRVGGGFYTWRNPAYEYWGQGTQVTVSS
  polyreactivity (PSR sort gate): high polyreactivity

## QVQHVESGAGLVQAGGSLRLSCAASGNTINFYAMGWYRQPPGKESELVASITSGGGTNYADSVKGRFTISRDNAKNTVYLQMNSLKPEDTAVYYCAAQFYDHFRYHFDWGQGTQVTVSS
  polyreactivity (PSR sort gate): low polyreactivity

## QVQHVESGGALVQAGGSLRLSCADSGRTFIFYAMGWYRQAPGKETELVASTSSGGSTNYADSVKGRFTISRDNAKNTVYLQMNILKPEDTAVYYCATRQYLYYSRGYGYWGQGTKVTVSS
  polyreactivity (PSR sort gate): low polyreactivity

## QVQHVESGGCLLQAGGSLRLSCAASGSIFEPYTMGWYRQAPGKERELVAAITGSGGSTFYADSVKGRFTISRDNAKNTVYLQMNSLKPEVTALYYCNAYAYPYTDVDYWVQGTQVTVSS
  polyreactivity (PSR sort gate): low polyreactivity

## QVQHVESGGCLVQAGGSLRLSCAASGRIFRGYAMGWYRQAPGKERELVAAISSRGSTYYADSVKGRFTNSRDNAKNTVYLQMNSLKPEDTAVYYCAKSEYARLSGFRYRTGYNYWGQGTQVTVSS
  polyreactivity (PSR sort gate): high polyreactivity

## QVQHVESGGCLVQAGGSRRLSCAASVSIFIPNAMGWSRQAHGKERELVAAISWSGASTYYADSVKRRFTISRDNAKNTVYLQMISLKPEDTAVYYCAAYYAYRRGYDYWGQGTQVTVSS
  polyreactivity (PSR sort gate): high polyreactivity

## QVQHVESGGCLVQAGRSLRLSCAASGRTFFPYGMGWDRQAPAKEREFVATISWSGGSTHYADSVKGRFTISRDNAKYTVYLEMNSLKPEDTAVYFCAAGNSLYWYNSGNYWGQGTQVTVSS
  polyreactivity (PSR sort gate): low polyreactivity

## QVQHVESGGGILQAGRSLRLICAASGRLYLSNVMAWNRQAPGTERQLVAAITGRGSSTYYADSVKGRFTISRDNAKNTVYLLINSLKPEDSAVYSCAKRLPYSSGYEYWGQGTQVTVSS
  polyreactivity (PSR sort gate): high polyreactivity

## QVQHVESGGGIVQAGGSLRLSCAASGHIFFYYTMGWYRQAPGKERELVAGITIGGSTNYADSVKGRFTISRDNAKNTVYLQMNSLKPEDTAVYYCNVVKYVYIYSYWEYYYWGQGTQVTVSS
  polyreactivity (PSR sort gate): low polyreactivity

## QVQHVESGGGIVQAGGSLRLSCAASGITFSRKAMGRYRQATGKERELVATITSGGSTNYADSVKGRFTISRDNAKNTVYLQMNRLKPEDTAVYYCNAVWNTFISGRSYDYWGQGTQVTVSS
  polyreactivity (PSR sort gate): low polyreactivity

## QVQHVESGGGIVQAGGSLRLSCAASGSTFFGNGMGWYRQAPGKERELVAAISGGGSTHYADSVKGRFTSSRDNAKNTVYVQMNSLKPEDTAVYYCSPSRDTVGRGPIQRDYWGQGTQVTVSS
  polyreactivity (PSR sort gate): low polyreactivity

## QVQHVESGGGLDQAGGSLRLSCAASGRIYCTNAMGWYRQAPGKESELVADITSGGSTNYADSVKGRFSISRDNAKNTVYLQMTSLKPEDTAVYYCAADVIGDLRWYRDEYWGQGTQVTVAS
  polyreactivity (PSR sort gate): low polyreactivity

## QVQHVESGGGLDQAGGSLRLSCAASGRTFAPYAMGWYRQAPGKEREFVAGITWSSSSTYADSVKGRFTISRDNAKNTVYVQMNSLKPDDPAVYYCAARHAKGGNRHYYWGQGTQVTVSS
  polyreactivity (PSR sort gate): high polyreactivity

## QVQHVESGGGLDQGRGSLSLSCAASARNLSSNVLGRYRQAPGNETEFVASITYSGSSTYYADSVKGRFTISRDYAKNTFYLQMNSLKPEDTAVYYCATRYGYSDGDYWGQGTQVTVSS
  polyreactivity (PSR sort gate): low polyreactivity

## QVQHVESGGGLGQAGGSLRLSCAASGRTFDGNVKGWYIQAPGKERELVAAMTASGARTYYADSVKRRFTISRDNAKNTVYLQMNSLKPEDTAVYYCAAVCRRVSAWYYYWGQGTQVTVSS
  polyreactivity (PSR sort gate): high polyreactivity

## QVQHVESGGGLLQAGGSLRLSCAASGMGWYRQAPGKERELVAVIRWSSGSTYYADSVKGRFTISRDNAKNTVYLQMNSLKPDDTAVYYCNARDQYYGDPSSQPDTRSRSDYWGQGTQVTVSS
  polyreactivity (PSR sort gate): low polyreactivity

## QVQHVESGGGLVLAGGSLRLSCAASGRTFAYNAMGWYRQAPGKERELVAAISRSGGSTYYADSVKGRFTISRDNPKNTVYLQMYSLKPEDTAVYYSNKVTHSYVYFAAGDYWGQGTQVTVSS
  polyreactivity (PSR sort gate): high polyreactivity

## QVQHVESGGGLVQAGASLRLSCAASGTTFIGYERGRSRQAPGKVRELVAAISYSDGTYYADSVKGRFTISRENAKNTVYLQMNSLKPEDTAVYYCAADSLFYRYDYWGQGTQVTVSS
  polyreactivity (PSR sort gate): low polyreactivity
